Test results reported in US20250333498A1 (BIO THERA SOLUTIONS, published 2025).
Substitutions are numbered along the chain they refer to. Names may count otherwise.

B1: positive Antibody IMAB362 (antibody, V domains shown)
VH: QVQLQQPGAELVRPGASVKLSCKASGYTFTSYWINWVKQRPGQGLEWIGNIYPSDSYTNYNQKFKDKATLTVDKSSSTAYMQLSSPTSEDSAVYYCTRSWRGNSFDYWGQGTTLTVSS
VL: DIVMTQSPSSLTVTAGEKVTMSCKSSQSLLNSGNQKNYLTWYQQKPGQPPKLLIYWASTRESGVPDRFTGSGSGTDFTLTISSVQAEDLAVYYCQNDYSYPFTFGSGTKLEIKR
B2: humanized Antibody H239H-2a-K-6a (antibody, human IgG1, kappa, V domains shown)
VH: EVQLLESGGGLVQPGGSLRLSCAASGFTFSDYGMHWVRQAPGKGLEWVAYISRGRSTTYSTDTVKGRFTISRDSSKNTLYLQMNSLRAEDTAVYYCARGSYYGNAMDYWGQGTLVTVSS
VL: DIVMTQSPDSLAVSLGERATINCKSSQSLLNSGNQRNYLTWYQQKPGQPPKLLIYWASTRESGVPDRFSGSGSGTDFTLTISSLQAEDVAVYYCQSAYSYPFTFGGGTKLEIKR
notes: Humanized antibody (humanized variable region + human constant region)
B3: humanized Antibody H239H-2b-K-6a (antibody, human IgG1, kappa, V domains shown)
VH: B2 VH with S74N
VL: B2 VL
notes: as for B2
B4: chimeric antibody CH101H1-K-1 (antibody, human IgG1, kappa, V domains shown)
VH: EVQLQESGPELVKPGASVKISCKASGYSFTSYYIHWVKQRPGQGLEWIGWIYPGSGNTKYNEKFKGKATLTADTSSSTAYMQLSSLTSEDSAVYYCARGMDYGNYYLDYWGQGTTLTVSS
VL: DIVMTQSHKFMSTSVGDRVSITCKASQDVGTAVAWYQQKPGQSPKLLIYWASTRHTGVPDRFTGSGSGTDFTLTISNVQSEDLADYFCQQYSSYLTFGAGTKLELKR
notes: Chimeric antibody (murine variable region + human constant region)
B5: chimeric Antibody CH239H-2-K-6 (antibody, human IgG1, kappa, V domains shown)
VH: EVKLQESGGGLVKPGGSLKVSCAASGFTFSDYGMHWVRQAPEKGLEWVAYISRGRSTTYSTDTVKGRFTISRDSAKHTLFLQMTSLRSEDTAMYYCARGSYYGNAMDYWGQGTSVTVSS
VL: B1 VL with K18R, K36R, Y93F, N96S, D97A
notes: as for B4
B6: chimeric antibody CH394H2-K-1 (antibody, human IgG1, kappa, V domains shown)
VH: EVKLQESGAELMKPGASVKLSCKATGYTFTGYWIEWVKQRPGHGLEWIGEILPGSGSTNYNEKFKGKATFTADTSSNTAYMQLSSLTTEDSAIYYCARAPLEGLRSGFAYWGQGTLVTVSA
VL: DIVLTQSPASLAVSLGQRATISCRASESVDSYGNSFMHWYQQKPGQPPKLLIYRASNLESGIPARFSGSGSRTDFTLTINPVEADDVATYYCQQSNEDPRTFGGGTKLEIKR
notes: as for B4

Columns and labels:
human CLDN18.2 [1] = target: T1, human CLDN18.2 (human); assay: flow cytometry on KATOIII cells (item 2)
T1 construct: The cell line is named under assay; also called claudin-18 isoform 2

human CLDN18.2 [2] = target: T1, human CLDN18.2; assay: flow cytometry on CHO-CLDN18.2 cells
human CLDN18.2 [3] = target: T1, human CLDN18.2; assay: cell-based or functional assay
human CLDN18.2 [4] = target: T1, human CLDN18.2; assay: flow cytometry on CHO-CLDN18.2 cells; CHO-CLDN18.2 cells
Experimental: (§1) Flow cytometry was used to detect the binding capacity of anti-CLDN18.2 antibodies and ADCs to cells expressing CLDN18.2, and the specificity of not binding to CLDN18.1 of the antibody was further detected. […] The mixture was incubated at 4° C. for 1 h and washed twice with PBS.

human CLDN18.2 [5] = target: T1, human CLDN18.2; assay: flow cytometry on KATOIII cells (item 3); KATOIII cells
Experimental: as §1

human CLDN18.1 = human CLDN18.1 (human, UniProt P56856 1-261); assay: flow cytometry on CHO-CLDN18.1 cells, PE anti-human IgG-Fc secondary antibody
Sequence of human CLDN18.1 (P56856 whole entry): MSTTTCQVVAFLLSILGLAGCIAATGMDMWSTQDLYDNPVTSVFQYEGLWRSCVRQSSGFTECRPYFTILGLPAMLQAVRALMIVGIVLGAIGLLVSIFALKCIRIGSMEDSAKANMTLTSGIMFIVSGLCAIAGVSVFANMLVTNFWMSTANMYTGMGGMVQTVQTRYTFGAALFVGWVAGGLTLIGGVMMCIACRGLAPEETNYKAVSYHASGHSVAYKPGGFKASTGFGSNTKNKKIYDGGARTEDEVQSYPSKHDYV
Experimental: as §1

human CLDN18.2 [6] = target: T1, human CLDN18.2; assay: flow cytometry on KATOIII cells (CLDN18.2 positive), PE anti-human IgG-Fc secondary antibody
Experimental: as §1

human CLDN18.2 [7] = target: T1, human CLDN18.2; assay: flow cytometry on KATOIII cells (item 2); KATOIII cells; item 2, compared with IMAB362
Experimental: as §1

human CLDN18.2 [8] = target: T1, human CLDN18.2; assay: flow cytometry on KATOIII cells (item 3); KATOIII cells; item 3, compared with the humanized antibodies
Experimental: as §1

Binder	ADCC Reporter Bioassay EC50 (luciferase, Jurkat-NFAT-luc-FcγRIIIa effector cells) (human CLDN18.2 [3])	CDC IC50 (cell killing rate of CHO-CLDN18.2 cells with 5% human serum complement, CCK-8) (human CLDN18.2 [3])	EC50 (human CLDN18.2 [4])	EC50 (human CLDN18.2 [5])	binding result (human CLDN18.1)	EC50 (read off the curve) (human CLDN18.2 [6])	further results
B1	0.795 nM	5.87 nM	–	–	–	–	EC50 (human CLDN18.2 [1]): 8.08 nM; EC50 (human CLDN18.2 [2]): 30 nM
B2	–	–	22.8 nM	6.2 nM	no binding (tested: about 330 nM)	–	–
B3	0.0625 nM	0.291 nM	23.3 nM	6.92 nM	no binding (tested: about 330 nM)	–	–
B4	–	–	–	–	–	~10 nM	–
B5	–	–	19.9 nM	–	–	~20 nM	EC50 (human CLDN18.2 [7]): 6.29 nM; EC50 (human CLDN18.2 [8]): 6.11 nM
B6	–	–	–	–	–	~20 nM	–
